According to the supplement of paper PMC9170038:

Assays:
[1] = system: MS2 coat protein; assay: apparent KD of MS2 coat protein, switch ON state; designed switch direction (-1 OFF switch, 1 ON switch): -1; higher = weaker reporter binding; details: FMN input: 0 or 200 uM; Eterna round: R93 (includes R88 designs)
Procedure, shortened: (§1)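 Designed RNA switches, transcribed on-chip from Illumina sequencing clusters, were titrated with SNAP-549-labelled MS2 coat protein from 0.7 or 1.5 nM to 3 µM in twofold steps. The solution was 100 mM Tris-HCl pH 7.5, 80 mM KCl, 4 mM MgCl2, with constant ligand or without it. Apparent KD is the median over each design's normalised cluster binding-curve fits.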

[2] = system: MS2 coat protein; assay: apparent KD of MS2 coat protein, switch OFF state (with FMN for OFF switches, without FMN for ON switches); designed switch direction (-1 OFF switch, 1 ON switch): -1; higher = weaker reporter binding; details: FMN input: 0 or 200 uM; Eterna round: R93 (includes R88 designs)
Procedure, shortened: as §1

Sequence | apparent KD of MS2 coat protein [1] [nM] | apparent KD of MS2 coat protein [2] [nM]
AAAAUAAAAGGAUAUAAAAAUAAAAGUCAGGAUAUAGGAAACUAGAAGGGACAUGAGGAUCACCCAUGUAAAAU [Meechl Ex4 R2 m1] | 47.8 | 33.8
AACUGACAUGAGGAUCACCCAUGUCAGGAUAUGACUUGAUAGAAAAUAAAAUAUCAUGUCAGAAGGGACAUGAA [Design 61: Sub-opt KB] | 14.3 | 12.4
AAAACACAUGAGGAUCACCCAUGUGAGGAUAUGCGAAAAAAAAAAAAAAAAAAAAAACGCAGAAGGCACAUAAA [jn_teaneck] | 23.6 | 43.5
AGUUGGCGAGGAUAUACAUGAGGAUCACCCAUGUGAGAGAAAAACUCGAAAGAGAAAAGUAGAAGGCGCUGACA [73%, Moding Norbert Elias, 6] | 19.3 | 82.2
AAAAAGGGAGGAUAUACAUGAGGAUCACCCAUGUAAAAAAAAAAAGGAGGGAGGGAAGGUAGAAGGCCCAAAAA [Excls3-IIi] | 17.7 | 24.6
AAAAAACAUGAGGAUCACCCAUGUGAGGAUAUGCAAAACCCAUAUAAAAAGGGAAAAAGCAGAAGGCACAAAAA [Starry Exclusion 1.3 (wbt round 1 mod)] | 22.8 | 55.8
AAAUGACAUGAGGAUCACCCAUGUCAGGAUAUGACUUGAAAAAUAAAAUAAAAACAUGUCAGAAGGGACAUGGA [Design 51: Sub-opt GB] | 23.9 | 20.8
ACGAAGAGAGGAUAUACGAACAUGUCAAAAGACGUGAAGGGACAUGAGGAUCACCCAUGUAGAAGGCUCUUCGA [Mat - Exclusion 2 - JL mod - D10] | 45.4 | 167
CUCUUGUGAGGAUAUGUAAGAAAAGAAAAGAAAGAAAAGAAACAGAAGGCACAUGAGGAUCACCCAUGUAAGAA [EteRNA is fun!] | 31.7 | 45.9
CUCAUGUGAGGAUAUCAGUAGUAAAAAAAUAAAAUUACUACUGAGAAGGCACAUGAGGAUCACCCAUGUGCCAA [EX4 337: Super Stable 37] | 21.3 | 27.6
AAAAAGUCAGGAUAUGCAGAAAAAAAAACGAAAAAAAAACUGCAGAAGGGACAUGAGGAUCACCCAUGUUAAAA [Ex 4 May 14] | 30.8 | 29.8
AAAAGGUCAGGAUAUGCCCACCAGGAAAAAAAACCAGGUGGGCAGAAGGGACAUGAGGAUCACCCAUGUAAAAA [Excls4-I] | 59.6 | 107
AGGAUGUCAGGAUAUGUGUAAAGAAUAAAACAAAUAACAACACAGAAGGGACAUGAGGAUCACCCAUGUUACCA [May 37] | 19.9 | 20.9
AAACUACUAGGAUAUACAACGGUGUCCUAACUACUAAGAAAACAUGAGGAUCACCCAUGUAGAAGGAGUAAUAA [Cearused] | 35.8 | 78.2
AAGGGACAUGAGGAUCACCCAUGUGAGGAUAUGAUGCGAAUAAAGAAAGAAGAAAGCAUCAGAAGGCACACCAA [58%, Disencluded 3, 7] | 67.8 | 146
AAAUCAGUAGGAUAUACGAUUUGGUACUAGACCGAGGAACCACAUGAGGAUCACCCAUGUAGAAGGACUAGAUA [EX2 Malc#21] | 17.2 | 12.9
GACUAGUCAGGAUAUACGAACAUGUCAAAAGACGUGAAGGAACAUGAGGAUCACCCAUGUAGAAGGGACUAGCA [Diamond 19] | 25.2 | 17.7
AAAAAUGGAGGAUAUACAUGAGGAUCACCCAUGUGUAACUAUACUAAGCACAAACCACGUAGAAGGCCAAAAAA [Gilly Gone Silly 11 - Jieux - Exclusion 3] | 51.7 | 78.3
AAAAAGUGAGGAUAUUCGGAUAGGAAAACGAAAACCUAUCCGAAGAAGGCACAUGAGGAUCACCCAUGUAAAAA [67% Ecls-II - Early G segment 1] | 37 | 37.6
AACAGUACAGGAUAUACAUGAGGAUCACCCAUGUAGGGAUAAAGUGGCGUACCACAAAGUAGAAGGGUACUGGA [Moding Maslow revisited (73) 4] | 30.6 | 142
AAAAUACAUGAGGAUCACCCAUGUGAGGAUAUGAGAAAGGGAAUAAAAUAACCCAAACUCAGAAGGCACAAAAA [Ex 1 May 26] | 35.9 | 45.9
AAAAAACAUGAGGAUCACCCAUGUGAGGAUAUCGGUAGUGAGGCUAUAGUGUCAAUAGUGAGAAGGCACAUAAA [Brourd 613 Mod 12 - Jieux - Exclusion 1] | 31.1 | 29.2
AGGGAGUGAGGAUAUGCGAAAGAAAAAGAAGGAAAAAAAGAGCAGAAGGUACAUGAGGAUCACCCAUGUAAAAA [milkweed 8] | 27.9 | 16.9
AUAGGCCUAGGAUAUACAUGAGGAUCACCCAUGUAAACAGAUAGAUCAAGGUAAACGAGUAGAAGGAGGAAUAA [JR_Exc003_Sub209] | 22 | 17.8
AGCUAGUCAGGAUAUACGAACAUGUCAAAAGACGUGAAGGGACAUGAGGAUCACCCAUGUAGAAGGGACUAGCA [WEB mod] | 35.4 | 138
CAGUACUGAGGAUAUACAUGAGGAUCACCCAUGUAAAAAACCUACGAAAGUAGGAAAUGUAGAAGGCAGUACUG [Ex3: 803] | 16.4 | 22.2
AAAAAACAUGAGGAUCACCCAUGUGAGGAUAUGUAAAAUAAAAUAAAAAUAAAGAAAAGCAGAAGGUAUAUGAA [Amethyst 65] | 20.4 | 23.2
AGUCCAGAAGGAUAUACAUAGGUGAUAAAAAAAAAAAAACUACAUGAGGAUCACCCAUGUAGAAGGUCUGGACA [Brourd - Exclusion 2 - Sub 3] | 37.8 | 24.5
AAGAGUAGAGGAUAUACGGGAAAAGAGUCGAAAGACUCAAAACAUGAGGAUCACCCAUGUAGAAGGCUACUCAA [Hyphema Seclusion Mod 62% 6] | 87.7 | 102
CAAAGGUGAGGAUAUACAUAACUAUGACGAAAGUCAUAAACACAUGAGGAUCACCCAUGUAGAAGGCACCACAA [e2] | 32.6 | 29.9
